We go through twelve molecules from patent publication US20240270821A1, “GIP/GLP1/GCG TRI-RECEPTOR AGONISTS AND USES THEREOF” (priority 2023, published 2024).

Changes are numbered by the printed parent chain.

T1: human GIP receptor (human) (UniProt P48546)
T1 sequence (looked up): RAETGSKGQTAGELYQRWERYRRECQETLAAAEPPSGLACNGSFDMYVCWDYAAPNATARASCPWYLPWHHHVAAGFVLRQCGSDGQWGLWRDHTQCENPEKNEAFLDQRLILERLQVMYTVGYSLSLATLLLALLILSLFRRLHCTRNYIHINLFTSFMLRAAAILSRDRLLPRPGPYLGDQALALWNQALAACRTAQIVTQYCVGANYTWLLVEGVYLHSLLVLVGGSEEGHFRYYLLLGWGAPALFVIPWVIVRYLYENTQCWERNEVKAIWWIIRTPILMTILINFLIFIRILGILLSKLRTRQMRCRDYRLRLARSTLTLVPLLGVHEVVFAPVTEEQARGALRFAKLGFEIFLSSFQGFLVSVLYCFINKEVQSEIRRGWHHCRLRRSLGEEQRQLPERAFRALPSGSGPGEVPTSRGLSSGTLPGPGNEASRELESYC

B1: Example 966 (peptide)
chain: YXQGTFTSDXSXXLDKKAQXAFIEXLIEGGPSSGAPPPSGSE
modifications: acylated Lys (γGlu)2-C18 diacid; non-natural residues; C-terminal amide; synthetic construct; SITE 2: note = 2-Aminoisobutyric Acid; SITE 10: note = 3-(4-Pyridyl)-L-alanine; SITE 12: note = L-ornithine; SITE 13: note = alpha-methyl-leucine; SITE 17: note = Lysine is chemically modified through conjugation of the epsilon-amino group of the Lysine side chain with (gamma-Gl)
B2: Example 980 (peptide)
chain: B1 chain with X25Y, E28A, A35E, S41T
modifications: synthetic construct; SITE 2: note = 2-Aminoisobutyric Acid; SITE 10: note = 3-(4-Pyridyl)-L-alanine; SITE 12: note = L-ornithine; SITE 13: note = alpha-methyl-leucine; SITE 17: note = Lysine is chemically modified through conjugation of the epsilon-amino group of the Lysine side chain with (gamma-Gl)
B3: Example 977 (peptide)
chain: B1 chain with X12Q, K16X, X25Y, E28A, A35E
modifications: synthetic construct; SITE 2: note = 2-Aminoisobutyric Acid; SITE 10: note = 3-(4-Pyridyl)-L-alanine; SITE 13: note = alpha-methyl-leucine; SITE 16: note = L-ornithine; SITE 17: note = Lysine is chemically modified through conjugation of the epsilon-amino group of the Lysine side chain with (gamma-Gl)
B4: Example 968 (peptide)
chain: YXQGTFTSDXSQXLDKKAQXAFIEYLIAGGPSSGEPPPSGS
modifications: synthetic construct; SITE 2: note = 2-Aminoisobutyric Acid; SITE 10: note = 3-(4-Pyridyl)-L-alanine; SITE 13: note = alpha-methyl-leucine; SITE 17: note = Lysine is chemically modified through conjugation of the epsilon-amino group of the Lysine side chain with (gamma-Glu)2-CO-(CH2)16-CO2H; SITE 20:
B5: Example 979 (peptide)
chain: B4 chain with Q12X, S41E
modifications: synthetic construct; SITE 2: note = 2-Aminoisobutyric Acid; SITE 10: note = 3-(4-Pyridyl)-L-alanine; SITE 12: note = L-ornithine; SITE 13: note = alpha-methyl-leucine; SITE 17: note = Lysine is chemically modified through conjugation of the epsilon-amino group of the Lysine side chain with (gamma-Gl)
B6: Example 983 (peptide)
chain: B4 chain with Q12X, K16X, S41E
modifications: Lys acylated (γ-Glu)2-C18 diacid; non-natural residues; C-terminal amide; synthetic construct; SITE 2: note = 2-Aminoisobutyric Acid; SITE 10: note = 3-(4-Pyridyl)-L-alanine; SITE 12: note = L-ornithine; SITE 13: note = alpha-methyl-leucine; SITE 16: note = L-ornithine; SITE 17: note = Lysine is chemically modified through conjugation of the epsilon-amino group of the Lys
B7: Example 969 (peptide)
chain: B4 chain with E35A, S39E
modifications: synthetic construct; SITE 2: note = 2-Aminoisobutyric Acid; SITE 10: note = 3-(4-Pyridyl)-L-alanine; SITE 13: note = alpha-methyl-leucine; SITE 17: note = Lysine is chemically modified through conjugation of the epsilon-amino group of the Lysine side chain with (gamma-Glu)2-CO-(CH2)16-CO2H; SITE 20:
B8: Example 958 (peptide)
chain: YXQGTFTSDXSXXLDKKAQXAFIEXLIEGGPSSGAPPPSGSEE
modifications: Aib, 4Pal, Orn, αMeL, Me4Pal, acylated K, C-terminal amide; synthetic construct; SITE 2: note = 2-Aminoisobutyric Acid; SITE 10: note = 3-(4-Pyridyl)-L-alanine; SITE 12: note = L-ornithine; SITE 13: note = alpha-methyl-leucine; SITE 17: note = Lysine is chemically modified through conjugation of the epsilon-amino group of the Lysine side chain with (gamma-Gl)
B9: Example 965 (peptide)
chain: B8 chain with X12R, X25Y, E28A, P31E
modifications: synthetic construct; SITE 2: note = 2-Aminoisobutyric Acid; SITE 10: note = 3-(4-Pyridyl)-L-alanine; SITE 13: note = alpha-methyl-leucine; SITE 17: note = Lysine is chemically modified through conjugation of the epsilon-amino group of the Lysine side chain with (gamma-Glu)2-CO-(CH2)16-CO2H; SITE 20:
B10: Example 973 (peptide)
chain: B8 chain with K16X, A21E
modifications: Aib, 4Pal, Orn, Me4Pal, αMeY; acylated lysine; amide; synthetic construct; SITE 2: note = 2-Aminoisobutyric Acid; SITE 10: note = 3-(4-Pyridyl)-L-alanine; SITE 12: note = L-ornithine; SITE 13: note = alpha-methyl-leucine; SITE 16: note = L-ornithine; SITE 17: note = Lysine is chemically modified through conjugation of the epsilon-amino group of the Lys
B11: Example 964 (peptide)
chain: B8 chain with X25Y, E28A, P31E
modifications: synthetic construct; SITE 2: note = 2-Aminoisobutyric Acid; SITE 10: note = 3-(4-Pyridyl)-L-alanine; SITE 12: note = L-ornithine; SITE 13: note = alpha-methyl-leucine; SITE 17: note = Lysine is chemically modified through conjugation of the epsilon-amino group of the Lysine side chain with (gamma-Gl)
B12: Example 967 (peptide)
chain: B8 chain
modifications: Aib, 4Pal, Orn, Me4Pal, αMeY; acylated lysine; amide; synthetic construct; SITE 2: note = 2-Aminoisobutyric Acid; SITE 10: note = 3-(4-Pyridyl)-L-alanine; SITE 12: note = L-ornithine; SITE 13: note = alpha-methyl-leucine; SITE 17: note = Lysine is chemically modified through conjugation of the epsilon-amino group of the Lysine side chain with (gamma-Gl)

Chain of hGLP-1R (P43220 24-463): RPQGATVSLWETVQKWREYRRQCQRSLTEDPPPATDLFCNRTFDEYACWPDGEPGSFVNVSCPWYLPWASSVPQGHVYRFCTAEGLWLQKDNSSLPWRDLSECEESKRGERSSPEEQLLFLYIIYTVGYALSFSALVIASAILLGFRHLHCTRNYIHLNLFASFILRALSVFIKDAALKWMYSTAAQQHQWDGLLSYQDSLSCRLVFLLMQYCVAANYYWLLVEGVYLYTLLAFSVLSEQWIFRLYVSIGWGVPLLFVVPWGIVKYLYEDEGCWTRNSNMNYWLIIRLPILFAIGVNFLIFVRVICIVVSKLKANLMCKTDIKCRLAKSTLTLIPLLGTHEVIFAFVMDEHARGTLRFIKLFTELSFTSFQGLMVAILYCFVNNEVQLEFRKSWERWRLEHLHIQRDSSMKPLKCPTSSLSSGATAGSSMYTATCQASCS

The first assay addresses hGLP-1R (Homo sapiens, UniProt P43220). Put plainly: cell-based or functional assay.
Molecule B1 displayed a cAMP Rel EC50, nM (1% HSA) of 257 nM.

Molecule B2 had a Relative cAMP EC50 of 2.26 nM and a cAMP Rel EC50, nM (1% HSA) of 290 nM.

Consider B3, for which the Relative cAMP EC50 came to 1.1 nM and the cAMP Rel EC50, nM (1% HSA) turned out to be 159 nM.

The molecule B4 gave a Relative cAMP EC50 of 1.04 nM and a cAMP Rel EC50, nM (1% HSA) of 103 nM.

For the molecule B5, the Relative cAMP EC50 is 2.72 nM and the cAMP Rel EC50, nM (1% HSA) is 257 nM.

On to B6, for which the Relative cAMP EC50 is 2.35 nM and the cAMP Rel EC50, nM (1% HSA) amounted to 207 nM.

B7 had a Relative cAMP EC50 of 1.21 nM and a cAMP Rel EC50, nM (1% HSA) of 113 nM.

The molecule B8 had a cAMP Rel EC50, nM (1% HSA) of 850 nM.

B9 displayed a Relative cAMP EC50 of 1.39 nM and a cAMP Rel EC50, nM (1% HSA) of 194 nM.

On to B10, for which the cAMP Rel EC50, nM (1% HSA) was 1140 nM.

Molecule B11 came in with a Relative cAMP EC50 of 2.67 nM and a cAMP Rel EC50, nM (1% HSA) of 267 nM.

Take B12: the cAMP Rel EC50, nM (1% HSA) was 345 nM.

For another assay, the target named is human glucagon receptor (human) (UniProt P47871). The assay is described as follows: cell-based or functional assay.
Chain of human glucagon receptor (human) (P47871 26-477): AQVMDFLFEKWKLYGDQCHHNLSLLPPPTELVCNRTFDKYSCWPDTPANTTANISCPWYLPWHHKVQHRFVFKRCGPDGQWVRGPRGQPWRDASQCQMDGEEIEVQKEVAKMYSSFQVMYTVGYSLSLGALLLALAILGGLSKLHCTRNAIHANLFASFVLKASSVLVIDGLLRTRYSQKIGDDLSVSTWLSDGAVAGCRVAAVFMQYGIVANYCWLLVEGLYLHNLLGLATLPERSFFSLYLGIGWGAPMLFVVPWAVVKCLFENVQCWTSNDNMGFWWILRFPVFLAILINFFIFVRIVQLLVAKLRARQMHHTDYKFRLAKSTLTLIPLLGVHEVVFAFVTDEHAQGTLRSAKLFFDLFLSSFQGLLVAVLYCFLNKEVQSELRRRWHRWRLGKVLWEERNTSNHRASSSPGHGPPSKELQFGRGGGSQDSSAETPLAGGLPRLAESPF
For B1, the cAMP Rel EC50, nM (1% HSA) was 581 nM.

The molecule B2 registered a Relative cAMP EC50 of 2.41 nM and a cAMP Rel EC50, nM (1% HSA) of 239 nM.

Regarding B3, the Relative cAMP EC50 was determined as 7.18 nM and the cAMP Rel EC50, nM (1% HSA) was 839 nM.

B4: the Relative cAMP EC50 stood at 4.72 nM and the cAMP Rel EC50, nM (1% HSA) came out at 625 nM.

Turning to B5, the Relative cAMP EC50 stood at 3.34 nM and the cAMP Rel EC50, nM (1% HSA) stood at 359 nM.

For the molecule B6, the Relative cAMP EC50 was 4.75 nM and the cAMP Rel EC50, nM (1% HSA) was found to be 576 nM.

On to B7, for which the Relative cAMP EC50 was 5.48 nM and the cAMP Rel EC50, nM (1% HSA) is 660 nM.

For the molecule B8, the cAMP Rel EC50, nM (1% HSA) is 340 nM.

For B9, the Relative cAMP EC50 was determined as 3.35 nM and the cAMP Rel EC50, nM (1% HSA) turned out to be 430 nM.

For B10, the cAMP Rel EC50, nM (1% HSA) came to 2270 nM.

Turning to B11, the Relative cAMP EC50 worked out at 2.75 nM and the cAMP Rel EC50, nM (1% HSA) turned out to be 324 nM.

In turn, B12 showed a cAMP Rel EC50, nM (1% HSA) of 508 nM.

The next assay addresses T1, human GIP receptor (human). Put plainly: cell-based or functional assay.
Regarding B1, the cAMP Rel EC50, nM (1% HSA) was 35.9 nM.

Consider B2, for which the Relative cAMP EC50 turned out to be 0.18 nM and the cAMP Rel EC50, nM (1% HSA) amounted to 15.4 nM.

The molecule B3 had a Relative cAMP EC50 of 0.189 nM and a cAMP Rel EC50, nM (1% HSA) of 23 nM.

In turn, B4 had a Relative cAMP EC50 of 0.0928 nM and a cAMP Rel EC50, nM (1% HSA) of 11.7 nM.

In the case of B5, the Relative cAMP EC50 was found to be 0.181 nM and the cAMP Rel EC50, nM (1% HSA) was 19.2 nM.

B6 registered a Relative cAMP EC50 of 0.289 nM and a cAMP Rel EC50, nM (1% HSA) of 19.4 nM.

Molecule B7 showed a Relative cAMP EC50 of 0.142 nM and a cAMP Rel EC50, nM (1% HSA) of 12.6 nM.

Molecule B8 returned a cAMP Rel EC50, nM (1% HSA) of 27.1 nM.

B9 registered a Relative cAMP EC50 of 0.13 nM and a cAMP Rel EC50, nM (1% HSA) of 23.2 nM.

On to B10, for which the cAMP Rel EC50, nM (1% HSA) worked out at 60.1 nM.

Turning to B11, the Relative cAMP EC50 is 0.288 nM and the cAMP Rel EC50, nM (1% HSA) came out at 21.4 nM.

With B12, the cAMP Rel EC50, nM (1% HSA) is 39.5 nM.
